From publication PMC10663207

Experiments:
[1] = molecular target: NMDA receptor subunit GluN2A (rat (endogenous in primary cortical neurons)) (UniProt Q00959); experiment: co-IP; precleared lysates (700 µg) of rat primary cortical neurons incubated overnight with protein G-agarose carrying anti-GluN2A or anti-GluN2B; blots for STIM1 and STIM2; control neurons and neurons treated with 50 µM NMDA and 100 µM glycine for 15 min; bands normalised to the precipitated subunit
[2] = molecular target: NMDA receptor subunit GluN2B (rat (endogenous in primary cortical neurons)) (UniProt Q00960); experiment: as above
Chain of UniProt Q00960 (Q00960 27-1482): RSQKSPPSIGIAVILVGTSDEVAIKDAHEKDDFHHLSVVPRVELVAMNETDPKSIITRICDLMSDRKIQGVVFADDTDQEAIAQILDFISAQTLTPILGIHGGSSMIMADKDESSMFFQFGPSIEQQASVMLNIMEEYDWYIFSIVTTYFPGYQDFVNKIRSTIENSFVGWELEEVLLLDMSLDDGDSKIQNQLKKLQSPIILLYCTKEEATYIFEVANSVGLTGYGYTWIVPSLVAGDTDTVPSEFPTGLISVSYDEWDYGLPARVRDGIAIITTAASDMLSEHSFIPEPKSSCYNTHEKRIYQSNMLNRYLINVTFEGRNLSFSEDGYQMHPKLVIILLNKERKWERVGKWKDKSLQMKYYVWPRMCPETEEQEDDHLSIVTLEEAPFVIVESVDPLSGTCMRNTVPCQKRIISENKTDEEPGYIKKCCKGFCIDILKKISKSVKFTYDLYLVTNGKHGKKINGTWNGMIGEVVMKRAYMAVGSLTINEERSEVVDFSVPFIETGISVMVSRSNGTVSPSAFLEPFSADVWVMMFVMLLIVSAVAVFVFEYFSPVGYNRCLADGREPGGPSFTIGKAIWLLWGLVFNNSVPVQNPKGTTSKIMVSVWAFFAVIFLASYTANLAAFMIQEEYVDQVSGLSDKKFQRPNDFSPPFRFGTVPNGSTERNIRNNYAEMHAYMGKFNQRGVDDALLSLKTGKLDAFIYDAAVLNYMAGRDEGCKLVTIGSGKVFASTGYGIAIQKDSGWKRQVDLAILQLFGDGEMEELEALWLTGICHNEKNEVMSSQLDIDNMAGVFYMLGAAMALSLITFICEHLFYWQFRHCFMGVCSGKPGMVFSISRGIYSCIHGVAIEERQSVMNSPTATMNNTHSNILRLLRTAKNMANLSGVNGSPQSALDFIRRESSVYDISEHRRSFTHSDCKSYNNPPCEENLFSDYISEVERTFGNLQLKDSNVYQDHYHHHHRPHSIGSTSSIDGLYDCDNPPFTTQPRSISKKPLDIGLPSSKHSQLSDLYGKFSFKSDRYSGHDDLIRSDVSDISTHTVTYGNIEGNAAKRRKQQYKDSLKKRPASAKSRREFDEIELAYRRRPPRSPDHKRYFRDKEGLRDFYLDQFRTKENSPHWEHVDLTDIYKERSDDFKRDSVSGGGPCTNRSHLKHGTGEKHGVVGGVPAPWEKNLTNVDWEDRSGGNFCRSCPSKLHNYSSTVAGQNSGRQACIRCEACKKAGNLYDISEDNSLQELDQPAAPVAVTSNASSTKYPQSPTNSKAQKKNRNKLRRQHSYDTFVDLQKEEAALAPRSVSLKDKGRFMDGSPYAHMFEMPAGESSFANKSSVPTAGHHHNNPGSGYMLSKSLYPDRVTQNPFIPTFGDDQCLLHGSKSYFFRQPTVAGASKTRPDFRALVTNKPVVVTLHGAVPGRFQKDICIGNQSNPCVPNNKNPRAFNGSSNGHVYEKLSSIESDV

Chain of UniProt Q00959 (Q00959 23-1464): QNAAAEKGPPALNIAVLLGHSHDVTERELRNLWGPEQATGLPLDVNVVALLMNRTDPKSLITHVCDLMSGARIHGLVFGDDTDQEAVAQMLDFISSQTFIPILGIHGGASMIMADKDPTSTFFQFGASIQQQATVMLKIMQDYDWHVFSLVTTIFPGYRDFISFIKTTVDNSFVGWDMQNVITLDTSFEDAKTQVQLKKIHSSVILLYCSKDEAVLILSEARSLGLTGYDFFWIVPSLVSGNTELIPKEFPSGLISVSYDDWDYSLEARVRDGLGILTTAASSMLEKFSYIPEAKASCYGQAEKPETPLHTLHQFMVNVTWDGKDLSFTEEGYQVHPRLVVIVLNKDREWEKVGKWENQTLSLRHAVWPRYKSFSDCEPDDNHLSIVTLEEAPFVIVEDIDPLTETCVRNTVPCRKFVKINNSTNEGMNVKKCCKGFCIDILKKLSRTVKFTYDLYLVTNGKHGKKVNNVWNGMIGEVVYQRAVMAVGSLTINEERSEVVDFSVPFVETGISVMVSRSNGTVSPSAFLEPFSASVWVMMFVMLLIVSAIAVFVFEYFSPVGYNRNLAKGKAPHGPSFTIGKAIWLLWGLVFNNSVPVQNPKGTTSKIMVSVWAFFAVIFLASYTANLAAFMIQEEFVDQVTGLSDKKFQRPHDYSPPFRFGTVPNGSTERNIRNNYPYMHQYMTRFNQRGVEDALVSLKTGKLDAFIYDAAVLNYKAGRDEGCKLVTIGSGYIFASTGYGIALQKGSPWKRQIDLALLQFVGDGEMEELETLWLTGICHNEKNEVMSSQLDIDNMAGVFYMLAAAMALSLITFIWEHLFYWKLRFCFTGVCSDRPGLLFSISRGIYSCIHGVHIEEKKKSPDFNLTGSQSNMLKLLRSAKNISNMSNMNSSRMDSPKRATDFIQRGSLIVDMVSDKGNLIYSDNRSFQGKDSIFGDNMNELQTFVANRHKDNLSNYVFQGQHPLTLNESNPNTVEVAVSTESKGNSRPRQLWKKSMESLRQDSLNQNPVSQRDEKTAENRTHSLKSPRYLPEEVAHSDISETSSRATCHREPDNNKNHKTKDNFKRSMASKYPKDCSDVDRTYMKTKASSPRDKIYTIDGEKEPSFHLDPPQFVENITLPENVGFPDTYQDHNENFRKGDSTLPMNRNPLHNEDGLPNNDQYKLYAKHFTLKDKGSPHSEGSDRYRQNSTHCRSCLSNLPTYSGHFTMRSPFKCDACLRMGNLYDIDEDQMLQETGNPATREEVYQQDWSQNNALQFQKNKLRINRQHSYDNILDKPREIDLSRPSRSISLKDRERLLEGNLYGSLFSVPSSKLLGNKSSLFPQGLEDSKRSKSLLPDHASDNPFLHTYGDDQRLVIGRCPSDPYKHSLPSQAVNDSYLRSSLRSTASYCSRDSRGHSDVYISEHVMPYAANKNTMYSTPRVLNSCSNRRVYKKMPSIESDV

Substance: stromal interaction molecule 2 (STIM2) (natural protein)
- co-IP band after NMDA and glycine treatment, percent of control neurons [1]: 340%
- co-IP band after NMDA and glycine treatment, percent of control neurons [2]: 204%
